From patent US20180169189A1 (AUTOLUS, published 2018)

Tests used:
[1] = target: T1, amino-terminal (endodomain) truncate of CD20 (human, UniProt P11836 42-297); assay: flow cytometry, transfected 293T cells
T1 construct: Expressed on transfected 293T cells, fused or co-expressed with eGFP (the text and the legend differ); As expressed in dCD20-FAS, the construct carries an extra N-terminal MG; also called dCD20
T1 sequence: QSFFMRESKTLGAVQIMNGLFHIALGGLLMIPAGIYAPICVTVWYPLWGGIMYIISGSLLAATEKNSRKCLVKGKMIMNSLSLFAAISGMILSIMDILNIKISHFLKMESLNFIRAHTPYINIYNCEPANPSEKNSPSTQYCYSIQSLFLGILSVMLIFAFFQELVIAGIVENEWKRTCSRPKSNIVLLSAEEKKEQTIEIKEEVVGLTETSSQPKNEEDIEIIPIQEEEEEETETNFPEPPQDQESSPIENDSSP
Description: (§1) To this end: full-length CD20; an amino-terminal (endodomain) truncate of CD20; and a carboxy-terminal (endodomain) truncate of CD20 were each fused with eGFP.

[2] = target: T2, carboxy-terminal (endodomain) truncate of CD20 (human, UniProt P11836 2-236); assay: flow cytometry, transfected 293T cells
T2 construct: Expressed on transfected 293T cells, fused or co-expressed with eGFP (the text and the legend differ); also called CD20d
T2 sequence: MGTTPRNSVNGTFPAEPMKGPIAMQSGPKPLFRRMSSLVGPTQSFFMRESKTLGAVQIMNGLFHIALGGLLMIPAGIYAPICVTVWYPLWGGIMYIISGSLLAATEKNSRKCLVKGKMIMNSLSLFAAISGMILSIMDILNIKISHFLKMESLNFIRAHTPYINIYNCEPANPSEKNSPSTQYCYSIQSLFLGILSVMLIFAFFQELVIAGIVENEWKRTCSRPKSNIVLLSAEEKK
Description: as §1

[3] = target: T3, CD20-P172W (human, UniProt P11836 1-297); assay: flow cytometry staining of transfected 293T cells
T3 construct: also called P172W mutated CD20
T3 sequence: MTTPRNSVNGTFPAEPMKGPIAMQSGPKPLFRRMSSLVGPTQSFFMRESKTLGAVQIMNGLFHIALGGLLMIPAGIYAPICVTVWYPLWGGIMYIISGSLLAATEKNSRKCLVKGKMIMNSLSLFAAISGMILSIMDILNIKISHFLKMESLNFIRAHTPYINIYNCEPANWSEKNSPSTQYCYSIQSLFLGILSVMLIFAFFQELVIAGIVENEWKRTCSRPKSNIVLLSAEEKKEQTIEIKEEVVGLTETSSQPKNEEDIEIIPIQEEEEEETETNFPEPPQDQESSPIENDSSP

B1: Rituximab (antibody, V domains shown)
VH: QVQLQQPGAELVKPGASVKMSCKASGYTFTSYNMHWVKQTPGRGLEWIGAIYPGNGDTSYNQKFKGKATLTADKSSSTAYMQLSSLTSEDSAVYYCARSTYYGGDWYFNVWGAGTTVTVS
VL: QIVLSQSPAILSASPGEKVTMTCRASSSVSYIHWFQQKPGSSPKPWIYATSNLASGVPVRFSGSGSGTSYSLTISRVEAEDAATYYCQQWTSNPPTFGGGTKLEIKR
notes: also called Rituxumab; Rituxan
B1: binds [1]; binds [2]; no binding [3].
